Experimental data published in article PMC4398755, “Cloning and expressing a highly functional and substrate specific farnesoic acid o-methyltransferase from the Asian citrus psyllid (Diaphorina citri Kuwayama)” (FEBS Open Bio, 2015).

How the values were obtained:
Experiment in all cases: radiometric [3H]SAM methyl transfer, RP-HPLC / rapid biphasic separation
DcFA-o-MT = target: T1, DcFA-o-MT (Diaphorina citri, UniProt A0A075W3Z0); format: biochemical; details: 10 μM SAM (saturating), 50 mM Tris-HCl pH 7.9, 25 °C, 30 min; no metal added; 357 pmol enzyme in 100 μL, well above Km; substrate 1-20 μM
T1 sequence (A0A075W3Z0 1-272): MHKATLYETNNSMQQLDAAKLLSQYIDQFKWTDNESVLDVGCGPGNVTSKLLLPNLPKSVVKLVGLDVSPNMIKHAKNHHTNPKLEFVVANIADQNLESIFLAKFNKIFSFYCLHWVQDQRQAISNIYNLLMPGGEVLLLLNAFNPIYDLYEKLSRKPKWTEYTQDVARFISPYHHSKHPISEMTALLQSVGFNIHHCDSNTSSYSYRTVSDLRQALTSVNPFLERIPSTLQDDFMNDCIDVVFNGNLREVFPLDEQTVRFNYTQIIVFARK
Excerpt: (§1) radiometric [3H]SAM methyl transfer, RP-HPLC / rapid biphasic separation on DcFA-o-MT

[1] = substrate: CC/C(=C/CC/C(C)=C/C(=O)O)CCC1OC1(C)CC; format: biochemical, Diaphorina citri; details: 10 μM SAM (saturating), 50 mM Tris-HCl pH 7.9, 25 °C, 30 min, no metal added, 357 pmol enzyme in 100 μL, well above Km, substrate 1-20 μM, error exceeds value, text b19 says Km is 100-fold that of FA,
Excerpt: as §1

[2] = substrate: CC(C)=CCC/C(C)=C/CC/C(C)=C/C(=O)O; format: biochemical, Diaphorina citri; details: 10 μM SAM (saturating), 50 mM Tris-HCl pH 7.9, 25 °C, 30 min, no metal added, 357 pmol enzyme in 100 μL, well above Km, substrate 1-20 μM
Excerpt: as §1

[3] = substrate: C/C(=C\C(=O)O)CC/C=C(\C)CC[C@H]1OC1(C)C; format: biochemical, Diaphorina citri; details: 10 μM SAM (saturating), 50 mM Tris-HCl pH 7.9, 25 °C, 30 min, no metal added, 357 pmol enzyme in 100 μL, well above Km, substrate 1-20 μM
Excerpt: as §1

[4] = substrate: CC/C(=C\CC/C(C)=C\C(=O)O)CCC1OC1(C)CC; format: biochemical, Diaphorina citri; details: 10 μM SAM (saturating), 50 mM Tris-HCl pH 7.9, 25 °C, 30 min, no metal added, 357 pmol enzyme in 100 μL, well above Km, substrate 1-20 μM, printed kcat/Km 143.4 does not match the printed Km and kcat
Excerpt: as §1

## homoFA
DcFA-o-MT
  Km: 0.02 ± 0.01 µM

B1: DcFA-o-MT (Diaphorina citri) (protein)
chain: T1 sequence (A0A075W3Z0 1-272)
[1]
  Km: 4.58 ± 4.82 µM
  Vmax: 5e-08 µmol/min
  kcat/Km: 0.66 M⁻¹ s⁻¹
[2]
  Km: 0.46 ± 0.05 µM
  Vmax: 1.61e-05 µmol/min
  kcat: 0.00075 ± 3e-05 s⁻¹
  kcat/Km: 1640 M⁻¹ s⁻¹
[3]
  Km: 2.53 ± 0.72 µM
  Vmax: 2.8e-07 µmol/min
  kcat: 1.3e-05 ± 2e-06 s⁻¹
  kcat/Km: 5.14 M⁻¹ s⁻¹
[4]
  Km: 5.65 ± 0.83 µM
  Vmax: 1.75e-06 µmol/min
